Reference: the supplement of paper PMC9112550, “Optimization of the antimicrobial peptide Bac7 by deep mutational scanning” (BMC Biology, 2022)

System: Escherichia coli TOP10
Assay: shrunken log2 fold change of peptide-encoding DNA abundance (4.5 h post-induction vs induction); higher = less antimicrobial activity (less host growth inhibition)
Conditions: time post-induction: 4.5 h; library: site-saturation at positions 5, 18, 19, 20
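Also: peptides expressed intracellularly from a pBAD plasmid library in pooled LB shake-flask culture, induced with 0.3% L-arabinose, DNA abundance read by NGS, three biological replicates, DESeq2 with apeglm shrinkage.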

RRIRERPPRLPRPRPRPELVPRP and RRIRKRPPRLPRPRPRPHWDPRP are within 0.2 log units of each other in “shrunken log2 fold change” value: 0.0791 for the first, 0.0835 for the second.

First: RRIRFRPPRLPRPRPRPDPCPRP
Second: RRIRNRPPRLPRPRPRPNCVPRP
The “shrunken log2 fold change” value of the first is lower: -0.191 for the first, 0.393 for the second.

RRIRSRPPRLPRPRPRPTMCPRP and RRIRFRPPRLPRPRPRPVALPRP are within 0.2 log units of each other in “shrunken log2 fold change” value: -0.0421 for the first, -0.128 for the second.

Compared with RRIRLRPPRLPRPRPRPSMDPRP, RRIRCRPPRLPRPRPRPKSDPRP is higher in “shrunken log2 fold change” value: -0.327 for the first, 0.0327 for the second.

Going from RRIRSRPPRLPRPRPRPCAKPRP to RRIRTRPPRLPRPRPRPQFNPRP, the “shrunken log2 fold change” value falls from 0.0351 to -0.226.

RRIRERPPRLPRPRPRPMVLPRP and RRIRNRPPRLPRPRPRPCPYPRP are within 0.2 log units of each other in “shrunken log2 fold change” value: 0.104 for the first, -0.0128 for the second.

Compared with RRIRDRPPRLPRPRPRPKVNPRP, RRIRDRPPRLPRPRPRPHWWPRP is higher in “shrunken log2 fold change” value: -0.287 for the first, 0.272 for the second.

First: RRIRVRPPRLPRPRPRPTFTPRP
Second: RRIRPRPPRLPRPRPRPEFWPRP
The “shrunken log2 fold change” value of the first is lower: -0.073 for the first, 0.583 for the second.

Compared with RRIRGRPPRLPRPRPRPQHAPRP, RRIRQRPPRLPRPRPRPALFPRP is lower in “shrunken log2 fold change” value: 0.797 for the first, -0.0103 for the second.

Going from RRIRNRPPRLPRPRPRPNVCPRP to RRIRPRPPRLPRPRPRPQVMPRP, the “shrunken log2 fold change” value falls from 0.00455 to -0.286.

Compared with RRIRYRPPRLPRPRPRPAPQPRP, RRIRERPPRLPRPRPRPNIMPRP is lower in “shrunken log2 fold change” value: 0.416 for the first, -0.444 for the second.

First: RRIRSRPPRLPRPRPRPGNNPRP
Second: RRIRQRPPRLPRPRPRPIHKPRP
The “shrunken log2 fold change” value of the first is higher: -0.354 for the first, -0.651 for the second.

First: RRIRGRPPRLPRPRPRPGWPPRP
Second: RRIRKRPPRLPRPRPRPMQQPRP
The “shrunken log2 fold change” value of the first is higher: 1.18 for the first, -0.000844 for the second.

RRIRDRPPRLPRPRPRPVIYPRP and RRIRFRPPRLPRPRPRPPLNPRP are within 0.2 log units of each other in “shrunken log2 fold change” value: 0.011 for the first, 0.0971 for the second.

Going from RRIRQRPPRLPRPRPRPSFNPRP to RRIRERPPRLPRPRPRPGGGPRP, the “shrunken log2 fold change” value rises from -0.48 to 0.855.

Compared with RRIRSRPPRLPRPRPRPDQWPRP, RRIRRRPPRLPRPRPRPYRHPRP is lower in “shrunken log2 fold change” value: -0.0262 for the first, -0.265 for the second.

Going from RRIRVRPPRLPRPRPRPKVMPRP to RRIRCRPPRLPRPRPRPMVHPRP, the “shrunken log2 fold change” value falls from -0.12 to -0.452.

RRIRCRPPRLPRPRPRPVRVPRP and RRIRKRPPRLPRPRPRPHFVPRP are within 0.2 log units of each other in “shrunken log2 fold change” value: 0.272 for the first, 0.347 for the second.

First: RRIRHRPPRLPRPRPRPLNIPRP
Second: RRIRPRPPRLPRPRPRPDDQPRP
The “shrunken log2 fold change” value of the first is lower: -0.386 for the first, 0.0917 for the second.

Compared with RRIRHRPPRLPRPRPRPVLCPRP, RRIRWRPPRLPRPRPRPGPEPRP is higher in “shrunken log2 fold change” value: -0.273 for the first, 0.809 for the second.

Compared with RRIRLRPPRLPRPRPRPCHGPRP, RRIRLRPPRLPRPRPRPILTPRP is lower in “shrunken log2 fold change” value: -0.0309 for the first, -0.281 for the second.

RRIRERPPRLPRPRPRPMDWPRP and RRIRVRPPRLPRPRPRPVPNPRP are within 0.2 log units of each other in “shrunken log2 fold change” value: 0.0151 for the first, -0.175 for the second.

RRIRNRPPRLPRPRPRPMSRPRP and RRIRNRPPRLPRPRPRPQMMPRP are within 0.2 log units of each other in “shrunken log2 fold change” value: -0.094 for the first, -0.227 for the second.

Compared with RRIRNRPPRLPRPRPRPPQSPRP, RRIRHRPPRLPRPRPRPMAWPRP is lower in “shrunken log2 fold change” value: 0.331 for the first, 0.0581 for the second.

Compared with RRIRARPPRLPRPRPRPINRPRP, RRIRTRPPRLPRPRPRPWMVPRP is lower in “shrunken log2 fold change” value: 0.0108 for the first, -0.208 for the second.

RRIRSRPPRLPRPRPRPYQEPRP and RRIRWRPPRLPRPRPRPHKHPRP are within 0.2 log units of each other in “shrunken log2 fold change” value: -0.157 for the first, -0.117 for the second.

RRIRPRPPRLPRPRPRPFLFPRP and RRIRPRPPRLPRPRPRPHVVPRP are within 0.2 log units of each other in “shrunken log2 fold change” value: -0.204 for the first, -0.136 for the second.

First: RRIRHRPPRLPRPRPRPSDTPRP
Second: RRIRRRPPRLPRPRPRPTFNPRP
The “shrunken log2 fold change” value of the first is lower: -1.05 for the first, 0.077 for the second.

Compared with RRIRPRPPRLPRPRPRPDKAPRP, RRIRPRPPRLPRPRPRPWNPPRP is lower in “shrunken log2 fold change” value: 0.00631 for the first, -0.496 for the second.

RRIRVRPPRLPRPRPRPPVGPRP and RRIRQRPPRLPRPRPRPPAPPRP are within 0.2 log units of each other in “shrunken log2 fold change” value: 0.375 for the first, 0.399 for the second.

First: RRIRARPPRLPRPRPRPWWHPRP
Second: RRIRDRPPRLPRPRPRPTWLPRP
The “shrunken log2 fold change” value of the first is lower: -0.0749 for the first, 0.909 for the second.

Going from RRIRARPPRLPRPRPRPFGEPRP to RRIRFRPPRLPRPRPRPSFQPRP, the “shrunken log2 fold change” value falls from 0.15 to -0.145.

First: RRIRCRPPRLPRPRPRPIKIPRP
Second: RRIRMRPPRLPRPRPRPPQTPRP
The “shrunken log2 fold change” value of the first is lower: -0.436 for the first, 0.424 for the second.

RRIRRRPPRLPRPRPRPLFNPRP and RRIRFRPPRLPRPRPRPTDTPRP are within 0.2 log units of each other in “shrunken log2 fold change” value: -0.162 for the first, -0.263 for the second.

RRIRHRPPRLPRPRPRPDMGPRP and RRIRKRPPRLPRPRPRPNQRPRP are within 0.2 log units of each other in “shrunken log2 fold change” value: 0.00739 for the first, -0.192 for the second.

Going from RRIRKRPPRLPRPRPRPRARPRP to RRIRWRPPRLPRPRPRPHYNPRP, the “shrunken log2 fold change” value falls from 0.776 to -0.772.

RRIRSRPPRLPRPRPRPVKSPRP and RRIRHRPPRLPRPRPRPPFNPRP are within 0.2 log units of each other in “shrunken log2 fold change” value: -0.127 for the first, -0.256 for the second.

First: RRIRQRPPRLPRPRPRPKCCPRP
Second: RRIRTRPPRLPRPRPRPAPAPRP
The “shrunken log2 fold change” value of the first is lower: -0.113 for the first, 0.463 for the second.

Compared with RRIRTRPPRLPRPRPRPSLNPRP, RRIRIRPPRLPRPRPRPKYEPRP is lower in “shrunken log2 fold change” value: -0.555 for the first, -0.83 for the second.

RRIRQRPPRLPRPRPRPFYPPRP and RRIRYRPPRLPRPRPRPWIQPRP are within 0.2 log units of each other in “shrunken log2 fold change” value: 0.0712 for the first, -0.101 for the second.

RRIRCRPPRLPRPRPRPPMWPRP and RRIRLRPPRLPRPRPRPRTAPRP are within 0.2 log units of each other in “shrunken log2 fold change” value: 0.557 for the first, 0.482 for the second.

First: RRIRWRPPRLPRPRPRPAIVPRP
Second: RRIRWRPPRLPRPRPRPRICPRP
The “shrunken log2 fold change” value of the first is higher: 0.144 for the first, -0.0691 for the second.

RRIRKRPPRLPRPRPRPHIFPRP and RRIRRRPPRLPRPRPRPDYFPRP are within 0.2 log units of each other in “shrunken log2 fold change” value: -0.0478 for the first, -0.0877 for the second.

Compared with RRIRQRPPRLPRPRPRPRFGPRP, RRIRVRPPRLPRPRPRPEDGPRP is lower in “shrunken log2 fold change” value: 0.198 for the first, -0.263 for the second.

RRIRPRPPRLPRPRPRPPETPRP and RRIRRRPPRLPRPRPRPQLQPRP are within 0.2 log units of each other in “shrunken log2 fold change” value: 0.407 for the first, 0.413 for the second.

First: RRIRGRPPRLPRPRPRPKWIPRP
Second: RRIRQRPPRLPRPRPRPVVDPRP
The “shrunken log2 fold change” value of the first is higher: 0.118 for the first, -0.355 for the second.

RRIRQRPPRLPRPRPRPQGMPRP and RRIRPRPPRLPRPRPRPIRKPRP are within 0.2 log units of each other in “shrunken log2 fold change” value: 0.0331 for the first, 0.0224 for the second.

Going from RRIRGRPPRLPRPRPRPMLTPRP to RRIRTRPPRLPRPRPRPITRPRP, the “shrunken log2 fold change” value falls from 1.04 to -0.0822.

Going from RRIRFRPPRLPRPRPRPFQIPRP to RRIRFRPPRLPRPRPRPAVFPRP, the “shrunken log2 fold change” value rises from -0.0567 to 0.259.

Compared with RRIRGRPPRLPRPRPRPLTKPRP, RRIRFRPPRLPRPRPRPMGMPRP is lower in “shrunken log2 fold change” value: 0.664 for the first, -0.0492 for the second.

RRIRSRPPRLPRPRPRPWVWPRP and RRIRWRPPRLPRPRPRPQMAPRP are within 0.2 log units of each other in “shrunken log2 fold change” value: 0.39 for the first, 0.242 for the second.

Compared with RRIRGRPPRLPRPRPRPAQQPRP, RRIRDRPPRLPRPRPRPNPNPRP is lower in “shrunken log2 fold change” value: 0.57 for the first, -0.136 for the second.

Compared with RRIRNRPPRLPRPRPRPHTIPRP, RRIRERPPRLPRPRPRPWPCPRP is higher in “shrunken log2 fold change” value: -0.106 for the first, 0.151 for the second.

Compared with RRIRRRPPRLPRPRPRPMFMPRP, RRIRRRPPRLPRPRPRPQHDPRP is higher in “shrunken log2 fold change” value: -0.192 for the first, 0.478 for the second.

In the case of RRIRCRPPRLPRPRPRPQWCPRP, the “shrunken log2 fold change” value is reported as -0.158.
